Experimental data reported in patent US5541288A, “Peptide having elastase inhibitory activity and producing method thereof” (Nissin Shokuhin Kabushiki Kaisha, priority 1993, dated 1996).
Read-outs that look alike come from different tables or passages of the source. One block for each molecule: values may come before it.

Tests used:
Assay type in all cases: biochemical
[1] = biological target: T1, human neutrophil elastase (Homo sapiens, UniProt P08246); experiment: Determination of Ki value against human neutrophil elastase (fluorogenic substrate MeOSuc-Ala-Ala-Pro-Val-7AMC); conditions: 30° C., pH 7.5, purified peptides with recovered activity, read-out: Inhibitory Activity against Human Neutrophil Elastase Ki
T1 sequence (P08246 30-267): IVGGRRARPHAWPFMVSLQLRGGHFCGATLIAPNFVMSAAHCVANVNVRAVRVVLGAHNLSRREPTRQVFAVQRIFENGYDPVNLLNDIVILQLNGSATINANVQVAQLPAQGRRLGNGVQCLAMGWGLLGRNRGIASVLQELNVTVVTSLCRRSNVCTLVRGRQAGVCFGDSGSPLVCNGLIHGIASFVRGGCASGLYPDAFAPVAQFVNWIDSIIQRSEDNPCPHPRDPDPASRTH
Description: Determination of Ki value of the samples of purified peptides of Example 7 against human neutrophil elastase was accomplished as follows.
10 μl of solution of human neutrophil elastase (Attends Research), (the concentration of which was adjusted to 25 μM with the following buffer), and 10 μl of test sample (the concentration of which was appropriately adjusted) were added to buffer containing 30 μl of 100 mM Tris-HCl (pH 7.5), 500 mM NaCl, 0.01% BSA, and left for 20 minutes at 30° C. Then, 200 μl of MeOSuc-Ala-Ala-Pro-Val-7AMC solution (Cambridge Research Biochemicals) containing 1% dimethyl-sulfoxide (hereinafter referred to as "DMSO") was added to the mixture to adjust the concentration thereof to 0.2 mM, 0.3 mM and 0.4 mM, and reacted at 30° C. Fluorescence at 450 nm excited at 365 nm was measured over 0 to 3 minutes with a spectrophotofluorometer (F-3000, HITACHI), and an initial reaction velocity was calculated. Ki value was determined by preparing a graph having a vertical axis of the reciprocal of initial reaction velocity and a horizontal axis of sample concentration, and then plotting on the graph lines for each of the three substrate concentrations and reading the intersection point of the three lines so obtained.

bovine pancreas trypsin = biological target: T2, bovine pancreas trypsin (Bos taurus, UniProt P00760); experiment: Determination of Ki value against bovine pancreas trypsin (substrate Bz-DL-Arg-pNA); conditions: 30° C., pH 8.0
T2 construct: purchased Washington Biochemicals; host or cells: bovine pancreas
T2 sequence (P00760 24-246): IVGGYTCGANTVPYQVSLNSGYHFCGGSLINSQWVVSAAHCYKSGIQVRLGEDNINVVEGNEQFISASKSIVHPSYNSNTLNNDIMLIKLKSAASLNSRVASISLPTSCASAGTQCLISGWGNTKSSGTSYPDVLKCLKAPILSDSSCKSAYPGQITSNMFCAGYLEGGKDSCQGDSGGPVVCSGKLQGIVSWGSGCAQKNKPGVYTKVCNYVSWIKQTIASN
Description: Furthermore, the Ki value against trypsin was determined as follows.
Firstly, buffer containing 20 μl of 10 mM CaCl2, 50 mM Tris-HCl (pH 8.0) was mixed with 10 μl of test sample (1.2~6 μM) and 10 μl of 4.2 μM bovine pancreas trypsin solution (prepared by dissolving bovine pancreas trypsin in 1 mM HCl; Washington Biochemicals), and incubated at 30° C. for three minutes. 110 μl of 1M Tris-HCl (pH 8.0) buffer containing 100 mM CaCl2 was added to this solution, then 350 μl of any of 0.6 mM, 1.2 mM and 2.3 mM Bz-DL-Arg-pNA.HCl (Nakaraitesk) solution (containing 10% DMSO) was added, and reacted at 30° C. Change on absorbance at 405 nm over time was recorded, and the initial reaction velocity of the enzyme was determined therefrom. Then, the Ki value against trypsin was determined according to a procedure which was similar to the procedure for human neutrophil elastase above.

[2] = biological target: T1, human neutrophil elastase; experiment: Resistance against oxidizer: inhibitory rate against human neutrophil elastase after treatment with chloro-succinate-imide; conditions: for Inhibitory Rate against Human Neutrophil Elastase (%): amount of inhibitor 20 p mole
Description: 5 μl of peptide sample, the concentration of which was adjusted appropriately, was mixed with 5 μl of 5 mM chloro-succinate-imide [prepared by dissolving chloro-succinate-imide (Nakaraitesk) in 100 mM Tris-HCl (pH 7.5) buffer containing 500 mM NaCl], then left for 10 minutes at room temperature, and then treated with the oxidizer. Then, 5 μl of human neutrophil elastase, concentration of which was adjusted with said buffer, and 35 μl of said buffer were further added thereto, and left for 15 minutes at 30° C. 450 μl of MeOSuc-Ala-Ala-Pro-Val-pNA (Cambridge Research Bio-Chemicals) solution (containing 1% DMSO), the concentration of which was adjusted to 0.1 mM with said buffer, was added thereto and further reacted for 30 minutes at 30° C. 40 μl of acetic acid was added and absorbance at 405 nm was measured. An inhibition against an activity of human neutrophil elastase in the samples treated with the oxidizer was indicated as an inhibitory rate (%) calculated by the following formula. [formula] A: Absorbance obtained from sample not containing inhibitor. B: Absorbance obtained from sample containing inhibitor.

Ki ([1]; listed as HI-8): ~690 nM
Ki [1]: 690 nM
Ki (bovine pancreas trypsin): 360 nM
Molecule: R15: Recombinant HI-8 peptide (C-terminal domain Thr78-Leu143 of UTI) expressed by using the plasmid pCD17R15

Inhibitory Rate against Human Neutrophil Elastase (%) ([2]; chloro-succinate-imide 0 mM): 72%
Inhibitory Rate against Human Neutrophil Elastase (%) ([2]; chloro-succinate-imide 2.5 mM): 5%
Ki [1]: 120 nM
Ki (bovine pancreas trypsin): 920 nM
B1: Ulinastatin (protein, UniProt P02760 206-352, looked up)
Inter-alpha-trypsin inhibitor …: AVLPQEEEGSGGGQLVTEVTKKEDSCQLGYSAGPCMGMTSRYFYNGTSMACETFQYGGCMGNGNNFVTEKECLQTCRTVAACNLPIVRGPCRAFIQLWAFDAVKGKCVLFPYGGCQGNGNKFYSEKECREYCGVPGDGDEELLRFSN
modifications: Inter-alpha-trypsin inhibitor light chain
inhibitory activity against human neutrophil elastase under oxidizing conditions (in words) ([2]; treated with oxidizer chloro-succinate-imide): oxidized and inactivated completely
